One test concerns WDF-fed mice. Kind of test: WDF diet-induced obesity/T2D model (Example 2). The test is classed as in vivo, mouse. On the procedure: Mice were injected intraperitoneally with 10 mg/kg of an antagonist anti-IL-11 antibody, an antagonist anti-IL-11Rα antibody, or an identical amount of isotype-matched IgG control antibody. The anti-IL-11 and anti-IL-11Rα antibodies bind to mouse IL-11 and mouse IL-11Rα respectively, and inhibit IL-11 mediated signalling.
In order to establish metabolic diseases such as obesity and T2D, mice were fed Western diet (D12079B, Research Diets), supplemented with 15% weight/volume fructose in drinking water (WDF) for 16 weeks, from 12 weeks of age.
Total body fat and lean mass measurements were performed every two weeks by EchoMRI analysis using 4in1 Body Composition Analyzer for Live Small Animals.
For fasting blood glucose measurements, mice were fasted for 6 hours prior to blood collection (via tail snip), and Accu-Chek blood glucose meter was used to obtain fasting glucose measurements.
For intraperitoneal glucose tolerance tests, mice were fasted for 6 h prior to being subjected to ipGTT. Basal fasting glucose was measured by tail snip using Accu-Chek blood glucose meter. 2 g/kg lean mass glucose was injected intraperitoneally, and glucose measurements were taken every 15 min for 2 hours. The area under the curve (AUC) was calculated, and plotted as bar graphs.
For histological analysis, pancreas samples were excised and fixed for 24 hours at RT in 4% neutral-buffered formalin (NBF), and stored in 30% sucrose. 5 μm cryosections were stained with either glucagon or insulin antibodies overnight, and visualized with ImmPRESS HRP IgG polymer detection kit (Vector Laboratories) with ImmPACT DAB Peroxidase Substrate (Vector Laboratories) according to standard protocols, and examined by light microscopy.

Test [1] has as its system primary human hepatocytes. As to the kind of experiment: Palmitate loading (lipotoxicity) of primary human hepatocytes. The test is classed as cell-based. On the procedure:
Palmitate:BSA conjugated solution in the ratio of 6:1 was prepared as described earlier (Alsabeeh et al., 2018). Palmitate (0.5 mM) conjugated in fatty acids free BSA was used to treated cells as described in figure legends; 0.5% BSA solution was used as control. […]
Primary human hepatocytes were seeded on 8-well chamber slides (1×10^4 cells/well). For this experiment, cells were not serum-starved prior to palmitate treatment. 24 hours following palmitate stimulation, cells were washed, incubated with 25 μM of DCFDA solution (ab113851, Abcam) for 45 minutes at 37° C. in the dark, and rinsed with dilution buffer according to the manufacturer's protocol. Live cells with positive DCF staining were imaged with filter set appropriate for fluorescein (FITC) using a fluorescence microscope (Leica). […]
Western blots were carried out on total protein extracts from hepatocytes and liver tissues. Hepatocyte and liver tissue lysates were homogenized in RIPA Lysis and Extraction Buffer (89901, Thermo Scientific) containing protease and phosphatase inhibitors (Roche). Protein lysates were separated by SDS-PAGE and transferred to PVDF membranes. Protein bands were visualized using the ECL detection system (Pierce) with the appropriate secondary antibodies: anti-rabbit HRP or anti-mouse HRP.

From US11813311B2, “Treatment and prevention of metabolic diseases” (Singapore Health Services PTE LTD., priority 2019, dated 2023) come the findings set out here.

B1: X209: mouse anti-mouse IL-11Rα IgG (IgG1κ), neutralising; VH SEQ ID NO:24, VL SEQ ID NO:25 (antibody, V domains shown)
VH: QVQLQQPGAELVRPGSSVKLSCKASGYTFTNYWMHWLKQRPVQGLEWIGNIGPSDSKTHYNQKFKDKATLTVDKSSSTAYMQLNSLTSEDSAVYYCARGDYVLFTYWGQGTLVTVSA
VL: DIVLTQSPATLSLSPGERATLSCRASQSISNNLHWYQQKSHEAPRLLIKYASQSISGIPARFSGSGSGTDFTLSFSSLETEDFAVYFCQQSYSWPLTFGQGTKLEIK
modifications: Enx209 VH; Enx209 VL
As for B1, in the test with WDF-fed mice (WDF-fed mice vs IgG control), the body weight result is on record as “significant reduction in body weight”, the “fasting blood glucose levels” value is listed as “significantly lower”, the fat mass result is “significantly reduced fat mass” and the “glucose tolerance (ipGTT)” value is listed as “significant improvement in glucose tolerance”. Besides, in the test on WDF-fed mice (WDF-fed mice vs IgG control), the lean mass result is on record as “increase in lean mass”, the serum cholesterol levels result is listed as “significantly lower” and the serum triglyceride levels result is recorded as “significantly lower”. Besides, the pancreas weight entry in the test with WDF-fed mice (treated from 8 to 16 weeks or from 16 to 24 weeks) is reported as “remarkable protection against WDF-induced loss of pancreas”. For the same molecule, in the test with WDF-fed mice (treatment from 16 to 24 weeks), the “glucagon staining in pancreatic islets” value is recorded as “remarkably reduced”, the “insulin expression in the islets” value is listed as “improved” and the islet hyperplasia result is given as “remarkably reduced”. In addition, the palmitate-induced signaling events result in test [1] (Western blot) is on record as “largely inhibited”. For the same molecule, the “secretion of cytokines (IL11, IL6, CCL2, CCL5)” value in test [1] (X209 2 μg/ml or sgp130 1 μg/ml) is “reduced the secretion of all cytokines”. Besides, in test [1] (palmitate), the “NOX4 upregulation by palmitate” value is listed as “inhibited”, the caspase3 activation result is “largely inhibited”, the “fatty acid synthase (FASN) upregulation” value is reported as “largely inhibited” and the triglyceride accumulation result is “largely inhibited”. Moreover, in test [1] (sFA-loaded hepatocytes), the ROS production entry is “prevent ROS production” and the “glutathione (GSH) levels” value was “partial restoration”.
